# Results as given in patent US20220305003A1, “METHODS OF TREATING CANCER WITH AN INHIBITOR OF ZNF827” (CHILDREN'S MEDICAL RESEARCH INSTITUTE, priority 2019, published 2022).
# T1: ZNF827 ZnF1-3 deleted (Homo sapiens, UniProt Q17R98 SEQ:4-997)
# T1 chain: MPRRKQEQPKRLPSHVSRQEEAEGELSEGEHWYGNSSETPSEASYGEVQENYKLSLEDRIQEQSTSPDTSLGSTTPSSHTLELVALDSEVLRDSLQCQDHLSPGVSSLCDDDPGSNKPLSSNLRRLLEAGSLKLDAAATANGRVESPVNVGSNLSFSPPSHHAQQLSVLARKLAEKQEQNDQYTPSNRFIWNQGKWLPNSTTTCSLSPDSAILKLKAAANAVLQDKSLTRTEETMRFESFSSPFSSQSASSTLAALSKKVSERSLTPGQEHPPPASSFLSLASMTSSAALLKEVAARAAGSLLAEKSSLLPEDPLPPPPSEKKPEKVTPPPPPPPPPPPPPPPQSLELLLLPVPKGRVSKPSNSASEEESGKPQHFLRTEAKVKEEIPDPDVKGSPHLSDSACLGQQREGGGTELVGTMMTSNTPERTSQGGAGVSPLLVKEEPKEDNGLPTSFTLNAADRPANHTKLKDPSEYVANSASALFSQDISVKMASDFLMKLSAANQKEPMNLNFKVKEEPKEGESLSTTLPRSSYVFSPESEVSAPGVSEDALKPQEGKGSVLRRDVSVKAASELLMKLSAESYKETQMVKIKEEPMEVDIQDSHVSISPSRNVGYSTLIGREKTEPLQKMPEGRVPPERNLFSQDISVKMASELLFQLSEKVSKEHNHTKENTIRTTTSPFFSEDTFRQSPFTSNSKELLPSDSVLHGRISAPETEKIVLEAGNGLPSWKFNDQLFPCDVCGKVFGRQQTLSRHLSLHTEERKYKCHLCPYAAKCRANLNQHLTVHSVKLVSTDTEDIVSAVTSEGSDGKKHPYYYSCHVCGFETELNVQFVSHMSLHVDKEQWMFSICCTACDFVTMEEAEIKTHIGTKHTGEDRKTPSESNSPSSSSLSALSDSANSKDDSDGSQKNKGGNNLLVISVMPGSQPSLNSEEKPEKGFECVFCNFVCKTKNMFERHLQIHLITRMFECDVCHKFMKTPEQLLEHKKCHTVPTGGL
# T2: ZNF827 SUMOylation mutant (Homo sapiens, UniProt Q17R98 SEQ:4-1079)
# T2 chain: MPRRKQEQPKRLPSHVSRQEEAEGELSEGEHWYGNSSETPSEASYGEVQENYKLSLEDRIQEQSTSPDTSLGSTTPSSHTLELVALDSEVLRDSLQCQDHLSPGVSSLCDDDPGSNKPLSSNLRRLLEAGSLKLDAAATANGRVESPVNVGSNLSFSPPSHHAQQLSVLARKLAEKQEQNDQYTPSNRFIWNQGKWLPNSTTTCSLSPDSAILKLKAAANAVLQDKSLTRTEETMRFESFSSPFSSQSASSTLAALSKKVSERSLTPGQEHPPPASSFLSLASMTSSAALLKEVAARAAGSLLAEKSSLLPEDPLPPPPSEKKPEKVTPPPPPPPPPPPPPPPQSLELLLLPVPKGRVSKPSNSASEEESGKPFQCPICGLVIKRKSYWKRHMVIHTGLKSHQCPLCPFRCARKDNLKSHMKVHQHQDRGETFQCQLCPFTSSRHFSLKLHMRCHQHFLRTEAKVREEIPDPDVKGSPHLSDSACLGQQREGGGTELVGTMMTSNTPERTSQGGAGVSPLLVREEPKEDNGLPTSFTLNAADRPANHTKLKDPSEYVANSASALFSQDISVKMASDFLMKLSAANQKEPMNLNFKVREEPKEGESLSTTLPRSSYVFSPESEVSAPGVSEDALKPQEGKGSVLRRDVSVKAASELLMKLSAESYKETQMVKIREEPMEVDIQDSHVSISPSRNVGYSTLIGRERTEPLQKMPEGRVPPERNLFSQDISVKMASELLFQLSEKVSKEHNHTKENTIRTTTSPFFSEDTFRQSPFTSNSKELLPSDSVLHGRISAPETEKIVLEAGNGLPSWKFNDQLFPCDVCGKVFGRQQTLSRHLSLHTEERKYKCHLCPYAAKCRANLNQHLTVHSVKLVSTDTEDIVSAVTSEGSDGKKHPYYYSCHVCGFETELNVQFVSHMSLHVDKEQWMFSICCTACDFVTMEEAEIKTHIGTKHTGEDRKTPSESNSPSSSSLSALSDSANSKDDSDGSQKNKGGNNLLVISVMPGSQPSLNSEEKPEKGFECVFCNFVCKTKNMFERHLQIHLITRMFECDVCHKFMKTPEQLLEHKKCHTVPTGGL
# Key:
# ZNF827 ZnF1-3 deleted = target: T1, ZNF827 ZnF1-3 deleted; experiment: EMSA; interaction abolished; settings: tags: HaloTag (pHTN), expressed in HEK 293T, tag removed by HaloTEV cleavage; label: 32P (gamma)
# Procedure: (§1) Purified proteins were quantified using a BCA assay using the Pierce™ BCA Protein Assay Kit according to the manufacturer's instructions. Equal amounts of purified proteins were incubated in binding buffer (20 mM HEPES-KOH, pH7.9, 100 mM KCl, 0.8 mM ZnCl₂, 0.2 mM EDTA, 5% glycerol, 0.5 mM DTT and 0.5 mM PMSF) with 6.25 μg/mL poly (dI:dC) and 50 ng/μL BSA on ice for 20 minutes. ˜0.12 nM (˜2.5 fmol) γ-³²P labelled DNA oligonucleotide (see Table 3) probes were added to samples and incubated on ice for another 30 minutes. Binding reactions were loaded onto an 8% native acrylamide/bisacrylamide (19:1, Biorad) gel pre-run at 100V in 0.5× TB buffer (89 mM Tris, 89 mM boric acid) for 20 minutes. Gels were electrophoresed at 150 V for 150 minutes at 4° C., dried at 65° C. for 45 minutes, and then exposed to a Phosphor screen overnight. Gel images were obtained by scanning the screens with a Typhoon FLA9500 Imager (GE Life Sciences).
# [1] = target: T2, ZNF827 SUMOylation mutant; experiment: EMSA; positive control; 0.8 mM ZnCl2, 100 mM KCl, poly(dI:dC), on ice; settings: tags: HaloTag (pHTN), expressed in HEK 293T, tag removed by HaloTEV cleavage; label: 32P (gamma)
# Procedure: as §1
# To identify which zinc fingers are required for DNA binding activity, zinc finger mutants with either one or both zinc finger clusters deleted were also generated and purified (FIG. 1). Purified proteins were validated by HaloTag® TMR ligand detection and western blot analysis. Mass spectrometry (MS) analysis also confirmed the specificity of the HaloTag protein purification method. […]
binder,measurement,setting,value
TTAGGGTTAGGGTTAGGG (ssDNA) [ss telomeric G rich oligo],binding result,ZNF827 ZnF1-3 deleted,no binding
same,binding result,[1],binds
